Reference: patent US20250051400A1

Columns and labels:
[1] = target: human IgG2 (Panitumomab); experiment: SPR, Biacore 3000, 25 C, Langmuir 1:1 model
[2] = target: human IgG4 (Natalizumab); experiment: SPR, Biacore 3000, 25 C, Langmuir 1:1 model

Kd [1]: 0.129 µM
Kd [2]: 0.008 µM
Substance: Wt C-domain (wild-type Protein A domain C) (from UniProt P38507 270-327)
